From patent US10017560 come the findings set out here.

Assay [1] deals with Tomato Leaf Curl Sudan Virus (ToLCSDV) purified viral particles (Tomato Leaf Curl Sudan Virus).
Assay [2] has the same target. Briefly: SPR single-cycle kinetics, ToLCSDV captured at 185 RU.
The target is the same in assay [3]. As to the kind of experiment: SPR single-cycle kinetics, ToLCSDV captured at 405 RU.
Assay [4] has the same target. As to the kind of experiment: SPR single-cycle kinetics, ToLCSDV captured at 310 RU.

B1: Nb-To2 (VHH)
VHH: QVQLQESGGGSVQAGGSLRLSCVASGDTLRLCRMGWYRQAPGKGRELVSSMEIDGTTNYADSVKGRFTISQGDNRNTMYLQMNSLKPEDTAMYYCKMEGGYGGNCRLAIYNYWGQGTQVTVSS
Regarding B1, in assay [1], the A1 (% ToLCSDV Binding) is -0.842, the A2 (% ToLCSDV Binding) turned out to be 101, the EC20 (dilution of the NbTo2 sample) is 0.00459 and the EC80 (dilution of the NbTo2 sample) was 0.000613. Moreover, in assay [1], the LOGx0 (log(dilution NbTo2)) is -2.78, the p was -1.38 and the span (% ToLCSDV Binding) was 102. In assay [2], the Kd worked out at 0.292 nM, the koff is 0.00135 s⁻¹ and the kon was found to be 4.65e+06 M⁻¹ s⁻¹. In assay [3], the Kd is 0.432 nM, the koff amounted to 0.00161 s⁻¹ and the kon turned out to be 3.72e+06 M⁻¹ s⁻¹. In assay [4], this molecule came in with a Kd of 0.374 nM, a koff of 0.00151 s⁻¹ and a kon of 4.05e+06 M⁻¹ s⁻¹.
